{"source": "patent US20260209350A1", "about": "(Alector, published 2026)", "binders": {"B1": {"name": "Ab79 (antibody, human IgG1, V domains shown)", "VH": "EVQLVESGGGLVQPGGSLRLSCAASGFTFSSYSMNWVRQAPGKGLEWVSYISGSSSTIYYADSVKGRFTISRDNAKNSLYLQMNSLRAEDTAVYYCARGGRRHYGGMDVWGQGTTVTVSS", "VL": "not shown", "notes": "human IgG1"}, "B2": {"name": "Ab24 (antibody, human IgG1, V domains shown)", "VH": "not shown", "VL": "DIQMTQSPSSLSASVGDRVTITCRASQSISSYLNWYQQKPGKAPKLLIYAASSLQSGVPSRFSGSGSGTDFTLTISSLQPEDFATYYCQQAFSPPPWTFGGGTKVEIK", "notes": "human IgG1"}, "B3": {"name": "Ab85 (antibody, human IgG1, V domains shown)", "VH": "QVQLVESGGGVVQPGRSLRLSCAASGFTFSSYGMHWVRQAPGKGLEWVAVIWYDGSNKYYADSVKGRFTISRDNSKNTLYLQMNSLRAEDTAVYYCAKDLGGYYGGAAYGMDVWGQGTTVTVSS", "VL": "B2 VL with M4L, L11V, S28D, Y32W, N34A, A91E, F92V, S93D, P94Y, W97L", "notes": "human IgG1"}, "B4": {"name": "Ab30 (antibody, human IgG1, V domains shown)", "VH": "not shown", "VL": "DIQMTQSPSSLSASVGDRVTITCRASQSISSYLNWYQQKPGKAPKLLIYGASSLQSGVPSRFSGSGSGTDFTLTISSLQPEDFATYYCQQVYITPITFGGGTKVEIK", "notes": "human IgG1"}, "B5": {"name": "Ab82 (antibody, human IgG1, V domains shown)", "VH": "QVQLQESGPGLVKPSQTLSLTCTVSGGSISSGGYYWSWIRQHPGKGLEWIGYIYYSGSTVYNPSLKSRVTISVDTSKNQFSLKLSSVTAADTAVYYCARVSSSWYKAWGQGTMVTVSS", "VL": "B4 VL with L11V, S28G, Y32W, N34A, G50A, V91A, Y92S, I93T, T94F", "notes": "human IgG1"}, "B6": {"name": "Ab83 (antibody, human IgG1, V domains shown)", "VH": "QVQLQQWGAGLLKPSETLSLTCAVYGGSFSGYYWSWIRQPPGKGLEWIGEIDHSGSTKYNPSLKSRVTISVDTSKNQFSLKLSSVTAADTAVYYCARVGVVVGRPGYSAFDIWGQGTMVTVSS", "VL": "B4 VL with L11V, S28G, Y32W, N34A, G50A, V91R, Y92N, I93S, T94L, I96L", "notes": "human IgG1"}, "B7": {"name": "Ab76 (antibody, human IgG1, V domains shown)", "VH": "EVQLVESGGGLVKPGGSLRLSCAASGFTFSSYSMNWVRQAPGKGLEWVSSISSSSSYIYYADSVKGRFTISRDNAKNSLYLQMNSLRAEDTAVYYCARGGGRRGDNNWFDPWGQGTLVTVSS", "VL": "not shown", "notes": "human IgG1"}, "B8": {"name": "Ab86 (antibody, human IgG1, V domains shown)", "VH": "QVQLVESGGGVVQPGRSLRLSCAASGFTFSSYGMHWVRQAPGKGLEWVAVISYDGSNKYYADSVKGRFTISRDNSKNTLYLQMNSLRAEDTAVYYCAKDGVYYGLGNWFDPWGQGTLVTVSS", "VL": "not shown", "notes": "human IgG1"}, "B9": {"name": "Ab37 (antibody, human IgG1, V domains shown)", "VH": "not shown", "VL": "EIVLTQSPATLSLSPGERATLSCRASQSVSSYLAWYQQKPGQAPRLLIYDASNRATGIPARFSGSGSGTDFTLTISSLEPEDFAVYYCQQRAFLFTFGGGTKVEIK", "notes": "human IgG1"}, "B10": {"name": "Ab29 (antibody, human IgG1, V domains shown)", "VH": "QVQLVESGGGVVQPGRSLRLSCAASGFTFSSYGMHWVRQAPGKGLEWVAVISYDGSNKYYADSVKGRFTISRDNSKNTLYLQMNSLRAEDTAVYYCARGQYYGGSGWFDPWGQGTLVTVSS", "VL": "EIVLTQSPGTLSLSPGERATLSCRASQSVSSSYLAWYQQKPGQAPRLLIYGASSRATGIPDRFSGSGSGTDFTLTISRLEPEDFAVYYCQQPGAVPTFGGGTKVEIK", "notes": "human IgG1"}, "B11": {"name": "Ab73 (antibody, human IgG1, V domains shown)", "VH": "EVQLVQSGAEVKKPGESLKISCKGSGYSFTSYWIGWVRQMPGKGLEWMGIIYPGDSDTTYSPSFQGQVTISADKSISTAYLQWSSLKASDTAMYYCARAKMLDDGYAFDIWGQGTMVTVSS", "VL": "EIVMTQSPATLSVSPGERATLSCRASQSVSSNLAWYQQKPGQAPRLLIYGASTRATGIPARFSGSGSGTEFTLTISSLQSEDFAVYYCQQDDNYPYTFGGGTKVEIK", "notes": "human IgG1"}, "B12": {"name": "Ab27 (antibody, human IgG1, V domains shown)", "VH": "not shown", "VL": "EIVLTQSPATLSLSPGERATLSCRASQSVSSYLAWYQQKPGQAPRLLIYDASNRATGIPARFSGSGSGTDFTLTISSLEPEDFAVYYCQQYNNFPPTFGGGTKVEIK", "notes": "human IgG1"}, "B13": {"name": "Ab28 (antibody, human IgG1, V domains shown)", "VH": "not shown", "VL": "B12 VL with N53K, Y91R, N92Y, N93L, F94R, P96I", "notes": "human IgG1"}, "B14": {"name": "Ab87 (antibody, human IgG1, V domains shown)", "VH": "QVQLQESGPGLVKPSETLSLTCTVSGGSISSYYWSWIRQPPGKGLEWIGSIYYSGSTNYNPSLKSRVTISVDTSKNQFSLKLSSVTAADTAVYYCARHGWDRVGWFDPWGQGTLVTVSS", "VL": "B12 VL with S31R, N92I, N93F, F94W", "notes": "human IgG1"}, "B15": {"name": "Ab81 (antibody, human IgG1, V domains shown)", "VH": "QVQLVQSGAEVKKPGSSVKVSCKASGGTFSSYAISWVRQAPGQGLEWMGGIIPIFGTANYAQKFQGRVTITADESTSTAYMELSSLRSEDTAVYYCARDSGNYDYWSGALRYWGQGTLVTVSS", "VL": "B12 VL with Y91S, N92S, F94W, P96W", "notes": "human IgG1"}, "B16": {"name": "Ab61 (antibody, human IgG1, V domains shown)", "VH": "QVQLVQSGAEVKKPGASVKVSCKASGYTFTSYGIHWVRQAPGQGLEWMGWISAYNGNTNYAQKLQGRVTMTTDTSTSTAYMELRSLRSDDTAVYYCARGGVPRVSYFQHWGQGTLVTVSS", "VL": "B12 VL with A51S, Y91A, N92F, F94R", "notes": "human IgG1"}, "B17": {"name": "Ab41 (antibody, human IgG1, V domains shown)", "VH": "EVQLLESGGGLVQPGGSLRLSCAASGFTFSTYAMSWVRQAPGKGLEWVSAISGSGGSTYYADSVKGRFTISRDNSKNTLYLQMNSLRAEDTAVYYCARAMARKSVAFDIWGQGTMVTVSS", "VL": "B12 VL with A84T, Y91R, N92Y, N93A, F94L, P96I", "notes": "human IgG1"}, "B18": {"name": "Ab60 (antibody, human IgG1, V domains shown)", "VH": "not shown", "VL": "B12 VL with N53K, Y91R, N92A, N93S, F94M, P96I", "notes": "human IgG1"}, "B19": {"name": "Ab75 (antibody, human IgG1, V domains shown)", "VH": "not shown", "VL": "B12 VL with Y91V, N92S, F94Y, P96F", "notes": "human IgG1"}, "B20": {"name": "Ab80 (antibody, human IgG1, V domains shown)", "VH": "QVQLVQSGAEVKKPGSSVKVSCKASGGTFSSYAISWVRQAPGQGLEWMGGIIPIFGTANYAQKFQGRVTITADESTSTAYMELSSLRSEDTAVYYCARGGGTFWSGSWALYWGQGTLVTVSS", "VL": "B12 VL with N92V, F94W, P96F", "notes": "human IgG1"}, "B21": {"name": "Ab74 (antibody, human IgG1, V domains shown)", "VH": "not shown", "VL": "B12 VL with Y91R, N92S, N93T, P96I", "notes": "human IgG1"}, "B22": {"name": "Ab77 (antibody, human IgG1, V domains shown)", "VH": "QVQLVESGGGVVQPGRSLRLSCAASGFTFSSYGMHWVRQAPGKGLEWVAVISYDGSNKYYADSVKGRFTISRDNSKNTLYLQMNSLRAEDTAVYYCARGPPHEMDYWGQGTLVTVSS", "VL": "not shown", "notes": "human IgG1"}, "B23": {"name": "Ab25 (antibody, human IgG1, V domains shown)", "VH": "not shown", "VL": "B10 VL with P92D, G93D, A94R, V95S", "notes": "human IgG1"}}, "note": "Where a chain is given by its changes, count along the chain named."}
{"molecular_target": "T1, human TREM2 Fc fusion protein (human, UniProt Q9NZC2 19-174)", "T1 construct": "also called hTREM2-Fc; not shown: Fc part not specified", "T1 sequence": "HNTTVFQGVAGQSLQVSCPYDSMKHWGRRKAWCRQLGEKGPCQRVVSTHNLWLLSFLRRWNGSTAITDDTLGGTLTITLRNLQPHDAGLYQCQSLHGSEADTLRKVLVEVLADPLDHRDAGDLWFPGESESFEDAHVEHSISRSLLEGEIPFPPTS", "assay": "ForteBio or MSD-SET, avid", "units": {"Kd": "nM"}}
{"binder": "B1", "Kd": 10.7}
{"binder": "B2", "Kd": 0.479}
{"binder": "B3", "Kd": 5.72}
{"binder": "B4", "Kd": 1.32}
{"binder": "B5", "Kd": 11}
{"binder": "B6", "Kd": 8.21}
{"binder": "B7", "Kd": 4.84}
{"binder": "B8", "Kd": 3.89}
{"binder": "B9", "Kd": 1.58}
{"binder": "B10", "Kd": 2.36}
{"binder": "B11", "Kd": 4.1}
{"binder": "B12", "Kd": 1.33}
{"binder": "B13", "Kd": 0.915}
{"binder": "B14", "Kd": 9.51}
{"binder": "B15", "Kd": 10.1}
{"binder": "B16", "Kd": 4.61}
{"binder": "B17", "Kd": 2.14}
{"binder": "B18", "Kd": 5.59}
{"binder": "B19", "Kd": 5.88}
{"binder": "B20", "Kd": 5.72}
{"binder": "B21", "Kd": 9.43}
{"molecular_target": "T2, mouse TREM2 Fc fusion protein (mouse, UniProt Q99NH8 19-171)", "T2 construct": "also called mTREM2-Fc; not shown: Fc part not specified", "T2 sequence (looked up)": "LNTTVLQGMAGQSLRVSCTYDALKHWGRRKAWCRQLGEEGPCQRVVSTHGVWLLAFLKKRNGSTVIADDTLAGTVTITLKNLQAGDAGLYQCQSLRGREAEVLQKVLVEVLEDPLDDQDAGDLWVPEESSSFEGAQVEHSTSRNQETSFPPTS", "assay": "ForteBio or MSD-SET, avid", "units": {"Kd": "nM"}}
{"binder": "B1", "binding result": "no binding"}
{"binder": "B2", "Kd": 9.32}
{"binder": "B3", "Kd": 2.19}
{"binder": "B22", "binding result": "no binding"}
{"binder": "B4", "binding result": "no binding"}
{"binder": "B5", "Kd": 5.82}
{"binder": "B8", "Kd": 6.55}
{"binder": "B9", "binding result": "no binding"}
{"binder": "B23", "Kd": 5.98}
{"binder": "B10", "Kd": 3.27}
{"binder": "B11", "binding result": "no binding"}
{"binder": "B12", "Kd": 6.39}
{"binder": "B13", "Kd": 7.45}
{"binder": "B14", "Kd": 4.48}
{"binder": "B15", "binding result": "no binding"}
{"binder": "B17", "Kd": 8.64}
{"binder": "B19", "binding result": "no binding"}
{"binder": "B20", "Kd": 8.85}
{"binder": "B21", "Kd": 4.91}
{"molecular_target": "T3, mouse TREM2 on cells (mouse, UniProt Q99NH8 19-227)", "T3 construct": "whole, on cells; Used for the recombinant protein on BWZ/BW cells (with mouse DAP12) and for the native protein on mouse macrophages and dendritic cells; the cell type stands under assay; also called mTREM2; mTrem2", "T3 sequence (looked up)": "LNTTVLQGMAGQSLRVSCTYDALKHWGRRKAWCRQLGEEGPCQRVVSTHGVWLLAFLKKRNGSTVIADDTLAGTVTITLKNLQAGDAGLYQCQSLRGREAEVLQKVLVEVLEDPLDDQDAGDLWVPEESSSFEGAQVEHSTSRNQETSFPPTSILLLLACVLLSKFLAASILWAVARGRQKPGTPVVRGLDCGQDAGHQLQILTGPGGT", "assay": "FACS, mTrem2 cells", "units": {"MFI": "MFI"}}
{"binder": "B1", "MFI": 738}
{"binder": "B2", "MFI": 2760}
{"binder": "B3", "MFI": 1120}
{"binder": "B22", "MFI": 1650}
{"binder": "B5", "MFI": 712}
{"binder": "B8", "MFI": 355}
{"binder": "B9", "MFI": 1430}
{"binder": "B23", "MFI": 2500}
{"binder": "B10", "MFI": 4520}
{"binder": "B11", "MFI": 1120}
{"binder": "B12", "MFI": 2160}
{"binder": "B13", "MFI": 5250}
{"binder": "B14", "MFI": 1230}
{"binder": "B15", "MFI": 400}
{"binder": "B16", "MFI": 10500}
{"binder": "B17", "MFI": 373}
{"binder": "B19", "MFI": 276}
{"binder": "B20", "MFI": 593}
{"binder": "B21", "MFI": 1360}
